Measurements taken from US20240058467A1 (SUTRO BIOPHARMA, published 2024).
Where two headings read alike, the source gives them in different places.

Legend:
[1] = molecular target: T1, ROR1 antigen expressed on ROR1 positive Ntera-2 cells (UniProt Q01973 30-937); experiment: cell-based or functional assay
[2] = molecular target: T1, ROR1 antigen expressed on ROR1 positive …; experiment: cell-based or functional assay; remark: listed apart in the source

B1: Conjugate 8: D04-Y180/F404/K42/E161-LP2 (antibody, human IgG1, kappa)
heavy: MEVQLVESGGGLVQPGGSLRLSCAASGFNISDYDIHWVRQAPGKGLEWVGGIDPADGSTDYADSVKGRFTISADTSKNTAYLQMNSLRAEDTAVYYCARDYGVYDYWGQGTLVTVSSASTKGPSVFPLAPSSKSTSGGTAALGCLVKDYFPEPVTVSWNSGALTSGVHTFPAVLQSSGLSLSSVVTVPSSSLGTQTYICNVNHKPSNTKVDKKVEPKSCDKTHTCPPCPAPELLGGPSVFLFPPKPKDTLMISRTPEVTCVVVDVSHEDPEVKFNWYVDGVEVHNAKTKPREEQYNSTYRVVSVLTVLHQDWLNGKEYKCKVSNKALPAPIEKTISKAKGQPREPQVYTLPPSREEMTKNQVSLTCLVKGFYPSDIAVEWESNGQPENNYKTTPPVLDSDGSFLYSKLTVDKSRWQQGNVFSCSVMHEALHNHYTQKSLSLSPGK
light: MDIQMTQSPSSLSASVGDRVTITCRASQDVNTAVAWYQQKPGAPKLLIYSASFLYSGVPSRFSGSRSGTDFTLTISSLQPEDFATYYCQQHYTTPPTFGQGTKVEIKRTVAAPSVFIFPPSDEQLKSGTASVVCLLNNFYPREAKVQWKVDNALQSGNSQSVTEQDSKDSTYSLSSTLTLSKADYEKHKVYACEVTHQGLSSPVTKSFNRGEC
modifications: pAMF at K42 and E161 (printed * in the sequence), linked to LP2; pAMF at Y180 and F404 (printed * in the sequence), linked to LP2
In the case of B1, the “NTERA-2 cell killing EC50” value [1] is reported as greater than 10 nM and the “NTERA-2 cell killing Span (%)” value [1] is reported as less than 10%.

B2: Conjugate 12: D04-Y180/F404/K42/E161-LP5 (antibody, human IgG1, kappa)
heavy: MEVQLVESGGGLVQPGGSLRLSCAASGFNISDYDIHWVRQAPGKGLEWVGGIDPADGSTDYADSVKGRFTISADTSKNTAYLQMNSLRAEDTAVYYCARDYGVYDYWGQGTLVTVSSASTKGPSVFPLAPSSKSTSGGTAALGCLVKDYFPEPVTVSWNSGALTSGVHTFPAVLQSSGLSLSSVVTVPSSSLGTQTYICNVNHKPSNTKVDKKVEPKSCDKTHTCPPCPAPELLGGPSVFLFPPKPKDTLMISRTPEVTCVVVDVSHEDPEVKFNWYVDGVEVHNAKTKPREEQYNSTYRVVSVLTVLHQDWLNGKEYKCKVSNKALPAPIEKTISKAKGQPREPQVYTLPPSREEMTKNQVSLTCLVKGFYPSDIAVEWESNGQPENNYKTTPPVLDSDGSFLYSKLTVDKSRWQQGNVFSCSVMHEALHNHYTQKSLSLSPGK
light: MDIQMTQSPSSLSASVGDRVTITCRASQDVNTAVAWYQQKPGAPKLLIYSASFLYSGVPSRFSGSRSGTDFTLTISSLQPEDFATYYCQQHYTTPPTFGQGTKVEIKRTVAAPSVFIFPPSDEQLKSGTASVVCLLNNFYPREAKVQWKVDNALQSGNSQSVTEQDSKDSTYSLSSTLTLSKADYEKHKVYACEVTHQGLSSPVTKSFNRGEC
modifications: pAMF at K42 and E161 (printed * in the sequence), linked to LP5; pAMF at Y180 and F404 (printed * in the sequence), linked to LP5
In the case of B2, the “NTERA-2 cell killing Span (%)” value [1] is reported as 94%.

B3: Conjugate 40: D04-Y180F404/K42/E161-LP21 (antibody, human IgG1, kappa)
heavy: MEVQLVESGGGLVQPGGSLRLSCAASGFNISDYDIHWVRQAPGKGLEWVGGIDPADGSTDYADSVKGRFTISADTSKNTAYLQMNSLRAEDTAVYYCARDYGVYDYWGQGTLVTVSSASTKGPSVFPLAPSSKSTSGGTAALGCLVKDYFPEPVTVSWNSGALTSGVHTFPAVLQSSGLSLSSVVTVPSSSLGTQTYICNVNHKPSNTKVDKKVEPKSCDKTHTCPPCPAPELLGGPSVFLFPPKPKDTLMISRTPEVTCVVVDVSHEDPEVKFNWYVDGVEVHNAKTKPREEQYNSTYRVVSVLTVLHQDWLNGKEYKCKVSNKALPAPIEKTISKAKGQPREPQVYTLPPSREEMTKNQVSLTCLVKGFYPSDIAVEWESNGQPENNYKTTPPVLDSDGSFLYSKLTVDKSRWQQGNVFSCSVMHEALHNHYTQKSLSLSPGK
light: MDIQMTQSPSSLSASVGDRVTITCRASQDVNTAVAWYQQKPGAPKLLIYSASFLYSGVPSRFSGSRSGTDFTLTISSLQPEDFATYYCQQHYTTPPTFGQGTKVEIKRTVAAPSVFIFPPSDEQLKSGTASVVCLLNNFYPREAKVQWKVDNALQSGNSQSVTEQDSKDSTYSLSSTLTLSKADYEKHKVYACEVTHQGLSSPVTKSFNRGEC
modifications: pAMF at K42 and E161 (printed * in the sequence), linked to LP21; pAMF at Y180 and F404 (printed * in the sequence), linked to LP21
With B3 the “NTERA-2 cell killing EC50” value [2] was 0.076 nM and the “NTERA-2 cell killing Span (%)” value [2] was 68%.

B4: Conjugate 39: D04-Y180F404/K42/E161-LP22 (antibody, human IgG1, kappa)
heavy: MEVQLVESGGGLVQPGGSLRLSCAASGFNISDYDIHWVRQAPGKGLEWVGGIDPADGSTDYADSVKGRFTISADTSKNTAYLQMNSLRAEDTAVYYCARDYGVYDYWGQGTLVTVSSASTKGPSVFPLAPSSKSTSGGTAALGCLVKDYFPEPVTVSWNSGALTSGVHTFPAVLQSSGLSLSSVVTVPSSSLGTQTYICNVNHKPSNTKVDKKVEPKSCDKTHTCPPCPAPELLGGPSVFLFPPKPKDTLMISRTPEVTCVVVDVSHEDPEVKFNWYVDGVEVHNAKTKPREEQYNSTYRVVSVLTVLHQDWLNGKEYKCKVSNKALPAPIEKTISKAKGQPREPQVYTLPPSREEMTKNQVSLTCLVKGFYPSDIAVEWESNGQPENNYKTTPPVLDSDGSFLYSKLTVDKSRWQQGNVFSCSVMHEALHNHYTQKSLSLSPGK
light: MDIQMTQSPSSLSASVGDRVTITCRASQDVNTAVAWYQQKPGAPKLLIYSASFLYSGVPSRFSGSRSGTDFTLTISSLQPEDFATYYCQQHYTTPPTFGQGTKVEIKRTVAAPSVFIFPPSDEQLKSGTASVVCLLNNFYPREAKVQWKVDNALQSGNSQSVTEQDSKDSTYSLSSTLTLSKADYEKHKVYACEVTHQGLSSPVTKSFNRGEC
modifications: pAMF at K42 and E161 (printed * in the sequence), linked to LP22; pAMF at Y180 and F404 (printed * in the sequence), linked to LP22
With B4 the “NTERA-2 cell killing EC50” value [2] was 0.215 nM and the “NTERA-2 cell killing Span (%)” value [2] was 54%.

B5: Conjugate 11: D04-Y180/F404/K42/E161-LP7 (antibody, human IgG1, kappa)
heavy: MEVQLVESGGGLVQPGGSLRLSCAASGFNISDYDIHWVRQAPGKGLEWVGGIDPADGSTDYADSVKGRFTISADTSKNTAYLQMNSLRAEDTAVYYCARDYGVYDYWGQGTLVTVSSASTKGPSVFPLAPSSKSTSGGTAALGCLVKDYFPEPVTVSWNSGALTSGVHTFPAVLQSSGLSLSSVVTVPSSSLGTQTYICNVNHKPSNTKVDKKVEPKSCDKTHTCPPCPAPELLGGPSVFLFPPKPKDTLMISRTPEVTCVVVDVSHEDPEVKFNWYVDGVEVHNAKTKPREEQYNSTYRVVSVLTVLHQDWLNGKEYKCKVSNKALPAPIEKTISKAKGQPREPQVYTLPPSREEMTKNQVSLTCLVKGFYPSDIAVEWESNGQPENNYKTTPPVLDSDGSFLYSKLTVDKSRWQQGNVFSCSVMHEALHNHYTQKSLSLSPGK
light: MDIQMTQSPSSLSASVGDRVTITCRASQDVNTAVAWYQQKPGAPKLLIYSASFLYSGVPSRFSGSRSGTDFTLTISSLQPEDFATYYCQQHYTTPPTFGQGTKVEIKRTVAAPSVFIFPPSDEQLKSGTASVVCLLNNFYPREAKVQWKVDNALQSGNSQSVTEQDSKDSTYSLSSTLTLSKADYEKHKVYACEVTHQGLSSPVTKSFNRGEC
modifications: pAMF at K42 and E161 (printed * in the sequence), linked to LP7; pAMF at Y180 and F404 (printed * in the sequence), linked to LP7
In the case of B5, the “NTERA-2 cell killing EC50” value [1] is reported as greater than 10 nM and the “NTERA-2 cell killing Span (%)” value [1] is reported as less than 10%.

B6: Conjugate 13: D04-Y180/F404/K42/E161-LP6 (antibody, human IgG1, kappa)
heavy: MEVQLVESGGGLVQPGGSLRLSCAASGFNISDYDIHWVRQAPGKGLEWVGGIDPADGSTDYADSVKGRFTISADTSKNTAYLQMNSLRAEDTAVYYCARDYGVYDYWGQGTLVTVSSASTKGPSVFPLAPSSKSTSGGTAALGCLVKDYFPEPVTVSWNSGALTSGVHTFPAVLQSSGLSLSSVVTVPSSSLGTQTYICNVNHKPSNTKVDKKVEPKSCDKTHTCPPCPAPELLGGPSVFLFPPKPKDTLMISRTPEVTCVVVDVSHEDPEVKFNWYVDGVEVHNAKTKPREEQYNSTYRVVSVLTVLHQDWLNGKEYKCKVSNKALPAPIEKTISKAKGQPREPQVYTLPPSREEMTKNQVSLTCLVKGFYPSDIAVEWESNGQPENNYKTTPPVLDSDGSFLYSKLTVDKSRWQQGNVFSCSVMHEALHNHYTQKSLSLSPGK
light: MDIQMTQSPSSLSASVGDRVTITCRASQDVNTAVAWYQQKPGAPKLLIYSASFLYSGVPSRFSGSRSGTDFTLTISSLQPEDFATYYCQQHYTTPPTFGQGTKVEIKRTVAAPSVFIFPPSDEQLKSGTASVVCLLNNFYPREAKVQWKVDNALQSGNSQSVTEQDSKDSTYSLSSTLTLSKADYEKHKVYACEVTHQGLSSPVTKSFNRGEC
modifications: pAMF at K42 and E161 (printed * in the sequence), linked to LP6; pAMF at Y180 and F404 (printed * in the sequence), linked to LP6
With B6 the “NTERA-2 cell killing EC50” value [1] was 0.028 nM and the “NTERA-2 cell killing Span (%)” value [1] was 38%.
